Patent US20180057581A1
Substitutions are numbered along the chain they refer to.

B1: Blanche, IgG1_D265A (antibody, V domains shown)
VH: QVQLQQSGPGLVKPSQTLSLTCAISGDSVSSNSAAWNWIRQSPSRGLEWLGRTYYRSKWKHEYAMSVKSRITINPDTSKNQFSLQLNSVTPEDTAVYYCARDRYYYSAFDYWGQGTLVTVSS
VL: DIALTQPASVSGSPGQSITISCTGTSSDVGGYNSVSWYQQHPGKAPKLMIYAVSNRPSGVSNRFSGSKSGNTASLTISGLQAEDEADYYCASYDERFTRVFGGGTKLTVLGQ
B2: Caline, IgG1_D265A (antibody, V domains shown)
VH: B1 VH
VL: B1 VL with D1Q, I2S
B3: Camille, IgG1_D265A (antibody, V domains shown)
VH: B1 VH with D27E, S31T, N32S, M65V
VL: B1 VL with D1Q, I2S, M49L
B4: Celine, IgG1_D265A (antibody, V domains shown)
VH: B1 VH with S31T, N32S, M65V
VL: B1 VL with D1Q, I2S, M49I
B5: Laurine, IgG1_D265A (antibody, V domains shown)
VH: B1 VH with H61K, M65Q
VL: B1 VL
B6: Madeleine, IgG1_D265A (antibody, V domains shown)
VH: B1 VH with H61K, M65Q
VL: B1 VL with D1Q, I2S
B7: Maelle, IgG1_D265A (antibody, V domains shown)
VH: B1 VH with D27E, S31T, N32S, H61K, M65Q
VL: B1 VL with D1Q, I2S, M49I
B8: Meriem, IgG1_D265A (antibody, V domains shown)
VH: B1 VH with S31T, N32S, H61K, M65Q
VL: B1 VL with D1Q, I2S, M49I
B9: Romaine, IgG1_D265A (antibody, V domains shown)
VH: EVQLVESGGGLVKPGGSLRLSCAASGFTFSIYAMSWVRQAPGKGLEWVGRIKSNADGGTTEYAAPVKGRFTISRDDSKNTLYLQMNSLKTEDTAVYYCARMRYYSDLYFDPWGQGTLVTVSS
VL: DIELTQPPSVSVSPGQTASITCSGDAIGSKYVHWYQQKPGQAPVLVISKDNKRPSGIPERFSGSNSGNTATLTISGTQAEDEADYYCQTATVSSYWWVFGGGTKLTVLGQ
B10: Satine, IgG1_D265A (antibody, V domains shown)
VH: B9 VH
VL: SYELTQPPSVSVSPGQTASITCSGDKLGQKYVSWYQQKPGQSPVLVISQDRKRPSGIPERFSGSNSGNTATLTISGTQAEDEADYYCQTWTHLQWVFGGGTKLTVLGQ
B11: Servane, IgG1_D265A (antibody, V domains shown)
VH: B9 VH with I31T, M34I, R50F, N54K, A55H, D56N, G57S
VL: B10 VL
B12: HeRX1-10G1, IgG1 (antibody, V domains shown)
VH: QVQLQESGPGLVKPSQTLSLTCTVSDYSITSDYAWNWIRQFPGKGLEWMGYISYSGSTSYNPSLKSRITISRDTSKNQFSLQLNSVTAADTAVYYCASFDYAHAMDYWGQGTTVTVSS
VL: DIVLTQSPAFLSVTPGEKVTFTCQASQSIGTSIHWYQQKTDQAPKLLIKYASESISGIPSRFSGSGSGTDFTLTISSVEAEDAADYYCQQINSWPTTFGGGTKLEIKRT
B13: HeRX1-10G1, IgG1_D265A (antibody, V domains shown)
VH: B12 VH
VL: B12 VL
B14: Camille (format not stated) (antibody, V domains shown)
VH: B1 VH with D27E, S31T, N32S, M65V
VL: B1 VL with D1Q, I2S, M49L
B15: HeRX1-10G1 (format not stated) (antibody, V domains shown)
VH: B12 VH
VL: B12 VL
B16: Blanche, IgG1_D265A (antibody, V domains shown)
VH: B1 VH
VL: DIALTQPASVSGSPGQSITISCTGTSSDVGGYNSVSWYQQHPGKAPKLMIYAVSNRPSGVSNRFSGSKSGNTASLTISGLQAEDEADYYCASYDERFTRVFGGGTKLTVLG
B17: Caline, IgG1_D265A (antibody, V domains shown)
VH: B1 VH
VL: B16 VL with D1Q, I2S
B18: Celine, IgG1_D265A (antibody, V domains shown)
VH: B1 VH with S31T, N32S, M65V
VL: B16 VL with D1Q, I2S, M49I
B19: Laurine, IgG1_D265A (antibody, V domains shown)
VH: B1 VH with H61K, M65Q
VL: B16 VL
B20: Madeleine, IgG1_D265A (antibody, V domains shown)
VH: B1 VH with H61K, M65Q
VL: B16 VL with D1Q, I2S
B21: Maelle, IgG1_D265A (antibody, V domains shown)
VH: B1 VH with D27E, S31T, N32S, H61K, M65Q
VL: B16 VL with D1Q, I2S, M49I
B22: Meriem, IgG1_D265A (antibody, V domains shown)
VH: B1 VH with S31T, N32S, H61K, M65Q
VL: B16 VL with D1Q, I2S, M49I
B23: Romaine, IgG1_D265A (antibody, V domains shown)
VH: B9 VH
VL: DIELTQPPSVSVSPGQTASITCSGDAIGSKYVHWYQQKPGQAPVLVISKDNKRPSGIPERFSGSNSGNTATLTISGTQAEDEADYYCQTATVSSYWWVFGGGTKLTVLG
B24: Satine, IgG1_D265A (antibody, V domains shown)
VH: B9 VH
VL: SYELTQPPSVSVSPGQTASITCSGDKLGQKYVSWYQQKPGQSPVLVISQDRKRPSGIPERFSGSNSGNTATLTISGTQAEDEADYYCQTWTHLQWVFGGGTKLTVLG
B25: HeRX1-10G1, IgG1 (antibody, V domains shown)
VH: B12 VH
VL: DIVLTQSPAFLSVTPGEKVTFTCQASQSIGTSIHWYQQKTDQAPKLLIKYASESISGIPSRFSGSGSGTDFTLTISSVEAEDAADYYCQQINSWPTTFGGGTKLEIKR
B26: HeRX1-10G1, IgG1_D265A (antibody, V domains shown)
VH: B12 VH
VL: B25 VL

Columns and labels:
[1] = target: native human M-CSF (in human serum or in MDA-MB-231 conditioned medium) (human), P09603; experiment: cell-based or functional assay
[2] = target: M-CSF endogenously expressed on MDA-MB-231 cells (human) (UniProt P09603); experiment: FACS, MDA-MB-231 cells endogenously expressing M-CSF (n = 2)

native human M-CSF (in human serum or in MDA-MB-231 conditioned medium) (human), P09603, sequence (P09603 33-255): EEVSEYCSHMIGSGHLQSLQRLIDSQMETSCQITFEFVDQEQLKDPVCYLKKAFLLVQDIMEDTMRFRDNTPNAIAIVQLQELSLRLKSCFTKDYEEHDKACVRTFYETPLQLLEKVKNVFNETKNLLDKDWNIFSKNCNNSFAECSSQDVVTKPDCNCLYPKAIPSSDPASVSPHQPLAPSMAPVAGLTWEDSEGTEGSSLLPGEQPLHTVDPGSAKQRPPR

| Binder | IC50, inhibition of M-NFS-60 proliferation induced by MDA-MB-231 conditioned medium [1] [nM] | IC50, inhibition of M-NFS-60 proliferation induced by human serum (50%) [1] [nM] | EC50 [2] [nM] | other results |
| --- | --- | --- | --- | --- |
| B1 | 0.12 | 0.0183 | – | – |
| B2 | 0.107 | 0.0177 | – | – |
| B3 | 0.0985 | 0.0177 | – | – |
| B4 | 0.0724 | 0.0238 | – | – |
| B5 | 0.095 | 0.0156 | – | – |
| B6 | 0.0754 | 0.02 | – | – |
| B7 | 0.0989 | 0.016 | – | – |
| B8 | 0.0769 | 0.0151 | – | – |
| B9 | 0.0833 | 0.0252 | – | – |
| B10 | 0.0708 | 0.0318 | – | – |
| B11 | 0.107 | 0.0932 | – | – |
| B12 | 0.0903 | 0.0154 | – | – |
| B13 | 0.0591 | 0.0124 | – | – |
| B14 | – | – | – | Cell viability assay (IC50), Human serum M-CSF [1]: 0.018 nM; Cell viability assay (IC50), MDA-MB-231 [1]: 0.099 nM |
| B15 | – | – | – | Cell viability assay (IC50), Human serum M-CSF [1]: 0.015 nM; Cell viability assay (IC50), MDA-MB-231 [1]: 0.09 nM |
| B16 | – | – | 10 | – |
| B17 | – | – | 14 | – |
| B18 | – | – | 13 | – |
| B19 | – | – | 9 | – |
| B20 | – | – | 10 | – |
| B21 | – | – | 8 | – |
| B22 | – | – | 10 | – |
| B23 | – | – | 19 | – |
| B24 | – | – | 26 | – |
| B25 | – | – | 27 | – |
| B26 | – | – | 23 | – |
